This assay has as its target RbpB (BT_1887), recombinant B. thetaiotaomicron RbpB (B. thetaiotaomicron) (UniProt A9IXD6). Put plainly: SEC. On the technique in general: In gel filtration, larger molecules generally elute earlier.

The source of these data is doi:10.1101/2023.12.22.572801.

For “RbpB (BT_1887), recombinant B. thetaiotaomicron RbpB (from UniProt A9IXD6 1-44) (natural protein)”, the stoichiometry N (commonly the number of molecules, sites or subunits per partner or assembly) stood at 2.
